Target: mature TGFβ1 produced in Nicotiana benthamiana (human)
Experiment: non-reducing Tricine-PAGE with Western blot; mature TGFβ1 released by HCl, 10% Tricine-PAGE under reducing or non-reducing conditions, anti-TGFβ1 blot

“mature TGFβ1 produced in Nicotiana benthamiana (ligand)” was tested, and the stoichiometry N was 2.

— publication PMC9197560
